This assay has as its target Clostridium difficile toxin A (TcdA) (Clostridium difficile) (UniProt P16154). Kind of assay: cell-based or functional assay.

A value given as a limit tells only on which side of the number the result lay.

Clostridium difficile toxin A (TcdA) (Clostridium difficile), sequence (P16154 whole entry): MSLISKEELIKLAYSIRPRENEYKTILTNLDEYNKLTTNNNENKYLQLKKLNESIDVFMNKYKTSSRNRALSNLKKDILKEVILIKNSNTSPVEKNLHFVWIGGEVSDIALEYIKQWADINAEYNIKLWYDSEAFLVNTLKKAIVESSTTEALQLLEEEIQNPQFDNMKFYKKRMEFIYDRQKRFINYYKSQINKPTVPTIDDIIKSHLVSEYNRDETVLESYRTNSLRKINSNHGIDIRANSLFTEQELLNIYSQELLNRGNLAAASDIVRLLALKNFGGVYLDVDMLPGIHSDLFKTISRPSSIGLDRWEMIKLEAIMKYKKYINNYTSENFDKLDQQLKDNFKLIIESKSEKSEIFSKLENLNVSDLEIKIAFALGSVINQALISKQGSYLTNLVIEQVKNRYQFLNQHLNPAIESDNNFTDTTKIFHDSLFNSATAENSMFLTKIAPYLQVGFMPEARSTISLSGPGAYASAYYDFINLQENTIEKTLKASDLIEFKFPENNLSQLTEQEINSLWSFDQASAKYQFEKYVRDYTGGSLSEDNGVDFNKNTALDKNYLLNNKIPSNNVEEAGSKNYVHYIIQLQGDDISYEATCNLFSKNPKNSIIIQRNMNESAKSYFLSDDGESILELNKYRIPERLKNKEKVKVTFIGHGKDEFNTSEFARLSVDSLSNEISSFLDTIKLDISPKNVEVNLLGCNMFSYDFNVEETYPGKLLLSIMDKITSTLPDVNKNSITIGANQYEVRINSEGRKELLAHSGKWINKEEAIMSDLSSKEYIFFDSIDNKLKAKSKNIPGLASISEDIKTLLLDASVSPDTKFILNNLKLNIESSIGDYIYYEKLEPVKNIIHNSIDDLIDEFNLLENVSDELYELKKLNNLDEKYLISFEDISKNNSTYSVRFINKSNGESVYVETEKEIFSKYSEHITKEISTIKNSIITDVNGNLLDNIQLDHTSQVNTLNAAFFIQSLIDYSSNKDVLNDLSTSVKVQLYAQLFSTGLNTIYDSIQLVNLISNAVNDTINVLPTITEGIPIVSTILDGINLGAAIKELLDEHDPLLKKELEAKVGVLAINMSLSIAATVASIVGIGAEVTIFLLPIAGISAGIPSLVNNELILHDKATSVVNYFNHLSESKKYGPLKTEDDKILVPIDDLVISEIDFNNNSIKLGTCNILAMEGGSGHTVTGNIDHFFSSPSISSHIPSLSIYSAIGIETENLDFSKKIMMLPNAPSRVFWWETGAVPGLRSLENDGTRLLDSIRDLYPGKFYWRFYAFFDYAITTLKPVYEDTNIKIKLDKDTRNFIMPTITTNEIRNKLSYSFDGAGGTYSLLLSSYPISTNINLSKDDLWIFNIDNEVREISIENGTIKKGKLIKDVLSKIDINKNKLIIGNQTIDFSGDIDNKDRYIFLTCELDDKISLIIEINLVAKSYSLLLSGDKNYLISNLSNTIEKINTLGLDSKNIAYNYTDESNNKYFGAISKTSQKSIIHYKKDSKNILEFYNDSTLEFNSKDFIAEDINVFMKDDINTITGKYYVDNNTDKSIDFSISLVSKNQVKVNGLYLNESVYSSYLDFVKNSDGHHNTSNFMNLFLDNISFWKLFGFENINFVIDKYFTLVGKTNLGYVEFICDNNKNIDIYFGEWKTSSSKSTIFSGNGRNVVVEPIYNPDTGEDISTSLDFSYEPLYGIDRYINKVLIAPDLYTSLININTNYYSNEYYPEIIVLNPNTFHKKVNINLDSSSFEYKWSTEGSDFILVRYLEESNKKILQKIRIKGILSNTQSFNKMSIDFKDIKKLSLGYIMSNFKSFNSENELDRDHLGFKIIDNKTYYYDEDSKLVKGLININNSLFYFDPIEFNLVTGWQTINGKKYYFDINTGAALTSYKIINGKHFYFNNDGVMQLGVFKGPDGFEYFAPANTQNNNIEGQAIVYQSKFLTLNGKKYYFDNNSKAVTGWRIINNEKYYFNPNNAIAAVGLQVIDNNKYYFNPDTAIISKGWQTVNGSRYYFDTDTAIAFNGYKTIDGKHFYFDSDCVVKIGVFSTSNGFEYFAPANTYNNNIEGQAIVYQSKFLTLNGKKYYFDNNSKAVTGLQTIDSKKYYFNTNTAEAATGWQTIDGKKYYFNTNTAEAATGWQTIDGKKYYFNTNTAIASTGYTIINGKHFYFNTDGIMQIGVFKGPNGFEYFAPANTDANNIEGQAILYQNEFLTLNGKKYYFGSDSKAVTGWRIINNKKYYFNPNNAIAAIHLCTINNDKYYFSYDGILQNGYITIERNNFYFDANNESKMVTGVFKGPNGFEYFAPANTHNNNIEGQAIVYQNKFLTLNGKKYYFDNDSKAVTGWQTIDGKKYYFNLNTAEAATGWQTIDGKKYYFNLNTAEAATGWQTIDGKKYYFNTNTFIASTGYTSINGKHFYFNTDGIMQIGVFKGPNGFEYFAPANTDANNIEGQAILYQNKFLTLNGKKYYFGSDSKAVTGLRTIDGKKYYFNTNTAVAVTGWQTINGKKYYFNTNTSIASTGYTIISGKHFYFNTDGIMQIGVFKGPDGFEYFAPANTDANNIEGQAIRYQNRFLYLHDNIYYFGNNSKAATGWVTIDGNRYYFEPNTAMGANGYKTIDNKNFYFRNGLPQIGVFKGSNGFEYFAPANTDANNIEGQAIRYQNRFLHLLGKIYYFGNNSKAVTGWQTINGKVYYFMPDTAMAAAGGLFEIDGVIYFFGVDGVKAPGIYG

In the case of “Merck anti-TcdA human monoclonal antibody (actoxumab)”, the minimal dose of antibody protecting Vero cells from TcdA-induced cell rounding is above 10 nM.

The record behind these values is patent publication US20230340087A1.
